Experimental findings from patent publication US20230067770A1 (SHANGHAI HENLIUS BIOTECH, published 2023) are described below.

A word on the EC50 (read off the curve): it is the concentration needed to bring the measured effect to its halfway point. A high value points to weaker potency. Broadly, the Kd is the constant that tells how readily two partners part at equilibrium. Read a low Kd as a tighter complex. Broadly, the koff is the rate constant with which the complex falls apart. Lower therefore signals slow dissociation. The kon is the second-order rate constant of association. A low value points to slow association.

Assay [1] addresses T1, CD137 on CD137 stably transfected 293T cells (UniProt Q07011 24-255, limits assumed).
T1 construct: whole, on cells; also called CD137/NF-κB reporter cells
As to the kind of experiment: flow cytometry, whole cell binding to CD137/NFkB 293T cells, Alexa Fluor 488 anti-human IgG F(ab')2 secondary, median fluorescence intensity. Here is the method:
(§1) The binding affinity of bispecific antibodies to cell surface receptors was also quantified in whole cell binding assay. […] Afterwards, cells were washed with PBS twice and then incubated with secondary Alexa Fluor® 488 AffiniPure Goat Anti-Human IgG, F(ab′)2 fragment specific antibody (Jackson ImmunoResearch, Code 109-545-006) for 30 min at 4° C. in FACS buffer. The cells were then washed with PBS twice and resuspended in FACS buffer. […] The median fluorescence intensity was fitted using a non-linear model with GraphPad 8.0.
(§2) The anti-CD137×EGFR bispecific antibodies included variants with IgG1 wild type Fc, IgG1 Fc with LALA mutation and different linkers.
(In general: In flow cytometry, cells or beads pass a laser one at a time.)

The next assay addresses T2, EGFR on SK-Hep1 cells (UniProt P00533 25-1210, limits assumed).
T2 construct: whole, on cells; also called EGFR positive SK-Hep1 tumor cells; EGFR high SK-Hep1 cells
As to the kind of experiment: flow cytometry, whole cell binding to SKHep1 EGFR high cells, Alexa Fluor 488 anti-human IgG F(ab')2 secondary, median fluorescence intensity. Here is the method: as §1, §2

Another assay deals with T3, Human EGFR-his (human, UniProt P00533 25-645).
T3 construct: Bought reagent; also called EGFR-His (Acro Biosystem, EGR-H5222-100 ug)
Kind of assay: BLI (Octet Red 96), antibody captured on AHC sensor, 1:1 Langmuir fit. On the procedure: (§3) Biolayer interferometry was used to measure the association and dissociation constants for the binding kinetics of bispecific antibodies. The binding kinetics was measured on a FortieBio Octet Red 96 at 30° C. and analyzed with the FortieBio Data Analysis 9.0 software. Anti-human-IgG Fc (AHC) sensor was used to capture the bispecific or control antibodies. Double binding was performed by association with the first antigen, then dissociation, and association with the second antigen, then dissociation. A regeneration cycle with 20 mM glycine, pH 1.5 was used between different antibody cycles. The 1×kinetic buffer (FortieBio) was used for baseline. Human CD137-His (Sino Biologicals Cat: 10041-H08H) and rhesus CD137-His protein (Sino Biologicals Cat: 90847-K08H) were diluted into kinetic buffer in a series of concentrations. A kinetic buffer only well was set as a reference well for subtraction during data processing. Data were fitted with a 1:1 Langmuir model for association and dissociation using Rmax linked global fitting for each antibody-antigen binding. Human CD137-his is a recombinant CD137 protein with a poly histidine tag fused to C-terminus of human CD137 antigen (Sino Biological, 10041-H08H). Human EGFR-his is a recombinant EGFR protein with a poly histidine tag fused to C-terminus of human EGFR antigen (Acro Biosystem, EGR-H5222-100 ug).
For orientation: Biolayer interferometry detects binding as a change in optical thickness at a sensor tip.

Assay [2] concerns the target T4, Human CD137-his (human, UniProt Q07011 24-186).
T4 construct: Bought reagent; also called Human CD137-His (Sino Biological, 10041-H08H)
The assay is described as above. On the procedure: as §3

Another assay deals with T5, mouse CD137 (mouse, UniProt P20334 24-187, limits assumed).
T5 sequence (looked up): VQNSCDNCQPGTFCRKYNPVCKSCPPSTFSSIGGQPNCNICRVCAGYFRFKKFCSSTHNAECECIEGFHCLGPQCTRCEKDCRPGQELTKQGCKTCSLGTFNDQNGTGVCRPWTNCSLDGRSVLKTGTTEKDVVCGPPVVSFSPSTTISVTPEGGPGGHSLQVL
Kind of assay: biolayer interferometry (Octet Red 96), antibody captured on AHC sensor.

Assay [3] addresses T4, Human CD137-his. As to the kind of experiment: BLI (Octet), second round, antibody captured on AHC sensor. On the procedure: (§4) Biolayer interferometry was used to measure the association and dissociation constants for the binding kinetics of the anti-CD137 antibodies. The binding kinetics was measured on a FortieBio Octet Red 96 at 30° C. and analyzed with the FortieBio Data Analysis 9.0 software. Anti-human-IgG Fc (AHC) sensor was used to capture the anti-CD137 antibodies or control antibodies. A kinetic buffer only well was set as a reference well for subtraction during data processing. Data were fitted with a 1:1 Langmuir model for association and dissociation using Rmax linked global fitting for each antibody-antigen binding. Human CD137-his is a recombinant CD137 antigen with a poly histidine tag fused to C-terminus of human CD137 antigen (Sino Biological, 10041-H08H). Cyno CD137-his is a recombinant CD137 antigen with a poly histidine tag fused to C-terminus of cynomolgus CD137 antigen (Sino Biological, 90847-K02H-100).

The next assay concerns the target T6, Cyno CD137-his (cynomolgus monkey, UniProt A9YYE7 24-186).
T6 construct: Bought reagent; also called cynomolgus monkey CD137; cynomolgus CD137 (Sino Biological, 90847-K02H-100)
T6 sequence: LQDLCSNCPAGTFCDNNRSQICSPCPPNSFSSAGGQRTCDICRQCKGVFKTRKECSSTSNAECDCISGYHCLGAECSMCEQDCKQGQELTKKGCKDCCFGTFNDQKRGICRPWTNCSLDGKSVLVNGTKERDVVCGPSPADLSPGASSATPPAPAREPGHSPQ
Kind of assay: BLI (Octet Red 96), antibody captured on AHC sensor, 1:1 Langmuir fit. On the procedure: as §4

The target of assay [4] is T4, Human CD137-his. The description is as above. On the procedure:
as §4
This is another data set of the same source.

T1 sequence (Q07011 24-255 limits assumed): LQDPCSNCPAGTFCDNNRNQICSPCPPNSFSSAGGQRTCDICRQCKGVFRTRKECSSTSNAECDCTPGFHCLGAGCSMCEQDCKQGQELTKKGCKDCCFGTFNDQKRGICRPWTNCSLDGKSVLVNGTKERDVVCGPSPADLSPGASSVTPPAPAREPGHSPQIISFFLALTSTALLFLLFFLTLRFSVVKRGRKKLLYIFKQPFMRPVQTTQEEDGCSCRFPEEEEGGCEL

B1: aCD137-scFv-αEGFR-IgG1-Linker7 (bispecific antibody)
heavy: not shown
light: EIVLTQSPATLSLSPGERATLSCRASQSIGTNIHWYQQKPGQAPRLLIKYASESISGIPARFSGSGSGTDFTLTISSLEPEDFAVYYCQQNNNWPTSFGGGTKVEIKRTVAAPSVFIFPPSDEQLKSGTASVVCLLNNFYPREAKVQWKVDNALQSGNSQESVTEQDSKDSTYSLSSTLTLSKADYEKHKVYACEVTHQGLSSPVTKSFNRGEC
notes: also called Anti-EGFR HC-anti-CD137 scFv-IgG1-Linker 7 (HCC)
Turning to B1, the entries for the “EC50 (read off the curve)” value (in assay [1]; in the assay with EGFR on SK-Hep1 cells) were ~10 nM and ~0.3 nM, respectively.

B2: Anti-CD137 scFv x anti-EGFR IgG1 HCC (bispecific antibody)
heavy: not shown
light: B1 light
notes: The tie rests on the label only; also called 2-9scFv-αEGFR2-HC-C; anti-CD137×EGFR bispecific antibody
On to B2, for which, in the assay with Human EGFR-his, the Kd was 2.45 nM, the koff turned out to be 0.000991 s⁻¹ and the kon is 404000 M⁻¹ s⁻¹. In the assay with Human CD137-his [2], this molecule came in with a Kd of 6.25 nM, a koff of 0.000116 s⁻¹ and a kon of 18600 M⁻¹ s⁻¹.

B3: aCD137-scFv-αEGFR-IgG1-Linker 10 (bispecific antibody)
heavy: not shown
light: B1 light
For the molecule B3, the “EC50 (read off the curve)” value was ~10 nM in assay [1] and ~0.3 nM in the assay with EGFR on SK-Hep1 cells.

B4: aCD137scFv-αEGFR-IgG1-LALA (Linker 7) (bispecific antibody)
heavy: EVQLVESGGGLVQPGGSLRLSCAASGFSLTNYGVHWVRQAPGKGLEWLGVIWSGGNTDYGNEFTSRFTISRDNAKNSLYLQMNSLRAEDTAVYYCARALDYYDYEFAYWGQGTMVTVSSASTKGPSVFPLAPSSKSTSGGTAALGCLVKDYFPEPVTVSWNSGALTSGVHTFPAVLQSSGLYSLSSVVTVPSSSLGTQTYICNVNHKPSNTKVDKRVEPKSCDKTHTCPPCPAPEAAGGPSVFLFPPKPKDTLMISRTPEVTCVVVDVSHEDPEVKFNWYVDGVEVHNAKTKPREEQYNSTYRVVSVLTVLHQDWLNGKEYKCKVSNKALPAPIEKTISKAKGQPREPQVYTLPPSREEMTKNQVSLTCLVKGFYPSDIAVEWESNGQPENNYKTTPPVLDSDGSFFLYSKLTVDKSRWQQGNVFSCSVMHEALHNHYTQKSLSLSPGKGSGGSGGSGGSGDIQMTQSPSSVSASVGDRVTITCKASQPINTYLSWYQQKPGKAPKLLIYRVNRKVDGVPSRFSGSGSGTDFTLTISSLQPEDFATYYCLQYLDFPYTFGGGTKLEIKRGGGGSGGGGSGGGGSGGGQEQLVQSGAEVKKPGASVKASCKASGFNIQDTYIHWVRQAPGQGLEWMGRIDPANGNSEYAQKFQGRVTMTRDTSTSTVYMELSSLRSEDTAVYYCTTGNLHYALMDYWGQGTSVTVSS
light: B1 light
notes: The Linker 7 bispecific with the LALA mutation in the IgG1 Fc; also called Anti-EGFR-HC-anti-CD137 scFv-IgG1-LALA-Linker 7 (HCC); αCD137scFv-αEGFR-IgG1 LALA
As to B4, the “EC50 (read off the curve)” value in assay [1] is ~10 nM; with EGFR on SK-Hep1 cells, ~0.2 nM.

B5: aCD137-scFv-αEGFR-IgG1-LALA-Linker 10 (bispecific antibody)
heavy: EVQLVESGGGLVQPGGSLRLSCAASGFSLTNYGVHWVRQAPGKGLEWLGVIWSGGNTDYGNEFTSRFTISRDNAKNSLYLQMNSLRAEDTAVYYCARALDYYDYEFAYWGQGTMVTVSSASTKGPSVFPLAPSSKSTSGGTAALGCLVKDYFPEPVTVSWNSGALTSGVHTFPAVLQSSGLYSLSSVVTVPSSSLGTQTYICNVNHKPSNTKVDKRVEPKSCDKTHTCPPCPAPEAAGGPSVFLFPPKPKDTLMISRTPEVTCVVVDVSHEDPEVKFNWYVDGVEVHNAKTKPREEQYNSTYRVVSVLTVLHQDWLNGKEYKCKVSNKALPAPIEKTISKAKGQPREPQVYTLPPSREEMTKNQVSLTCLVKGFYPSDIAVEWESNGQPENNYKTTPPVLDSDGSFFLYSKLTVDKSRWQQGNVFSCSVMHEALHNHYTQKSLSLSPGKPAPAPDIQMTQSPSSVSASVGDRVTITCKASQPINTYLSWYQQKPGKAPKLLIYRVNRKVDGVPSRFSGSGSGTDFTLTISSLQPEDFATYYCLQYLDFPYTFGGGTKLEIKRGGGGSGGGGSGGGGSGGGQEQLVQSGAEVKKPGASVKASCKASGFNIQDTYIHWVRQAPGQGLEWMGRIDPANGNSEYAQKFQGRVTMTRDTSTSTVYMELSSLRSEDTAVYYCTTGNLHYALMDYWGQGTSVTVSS
light: B1 light
notes: The Linker 10 bispecific with the LALA mutation in the IgG1 Fc; also called Anti-EGFR HC-anti-CD137 scFv-IgG1 LALA-Linker 10 (HCC)
Regarding B5, the “EC50 (read off the curve)” value was ~10 nM in assay [1] and ~0.2 nM with EGFR on SK-Hep1 cells.

B6: Anti-CD137 2-9 IgG2 (antibody, V domains shown)
VH: QVQLVQSGAEVKKPGASVKASCKASGFNIQDTYIHWVRQAPGQGLEWMGRIDPANGNSEYAQKFQGRVTMTRDTSTSTVYMELSSLRSEDTAVYYCTTGNLHYALMDYWGQGTSVTVSS
VL: DIQMTQSPSSVSASVGDRVTITCKASQPINTYLSWYQQKPGKAPKLLIYRVNRKVDGVPSRFSGSGSGTDFTLTISSLQPEDFATYYCLQYLDFPYTFGGGTKLEIKR
notes: also called clone 2-9 IgG2 wt; 2-9 IgG2 wildtype
As to B6, the binding result with mouse CD137 was “no binding”. Moreover, the Kd with Human CD137-his [3] was 5.5 nM; with Human CD137-his [2] it was 4.52 nM; in the assay with Cyno CD137-his, 2.76 nM; with Human CD137-his [4], 9.33 nM. The koff is 0.000314 s⁻¹ in the assay with Human CD137-his [3], 0.000299 s⁻¹ with Human CD137-his [2], 0.000712 s⁻¹ with Cyno CD137-his and 0.000869 s⁻¹ with Human CD137-his [4]. Besides, the kon worked out at 57100 M⁻¹ s⁻¹ with Human CD137-his [3], 66200 M⁻¹ s⁻¹ with Human CD137-his [2], 258000 M⁻¹ s⁻¹ in the assay with Cyno CD137-his and 93100 M⁻¹ s⁻¹ in the assay with Human CD137-his [4].
